# Results taken from the RNAGym collection of RNA variant scans (doi:10.7554/elife.80360).
# B1: Hairpin Ribozyme (parent)
# chain: GUCCUCUUUCACGUGCGCGUGAAAGAGAGAAGUGAACCAGAGAAACACACGUUGUGGUAUAUUACCUGGUA
# Variants of: B1
# Experiment: self-cleavage, relative activity (ratio to wild type); higher = more cleavage; co-transcriptional
row,Variant,self-cleavage
1,C3G G57U,0.0635
2,C3G G68A,0.085
3,C3G G69A,0.108
4,C3G U5A,0.15
5,C3G U5G,0.163
6,C3G U7C,0.372
7,C3G U8A,0.377
8,C3G U9C,0.357
9,C3G U14A,0.431
10,C3G U20G,0.28
11,C3G U33A,0.138
12,C3G U52C,0.359
13,C3G U53C,0.102
14,C3G U53G,0.235
15,C3G U55C,0.118
16,C3G U55G,0.0936
17,C3G U58A,0.0819
18,C3G U60A,0.167
19,C3G U62C,0.0668
20,C3G U63A,0.108
21,C3G U63G,0.18

row,Variant,self-cleavage
1,C3G U67A,0.0949
2,C3G U70C,0.235
3,C3U,0.526
4,C3U A11U,0.32
5,C3U A23G,0.325
6,C3U A23U,0.535
7,C3U A24C,0.477
8,C3U A26G,0.509
9,C3U A28C,0.452
10,C3U A30C,0.161
11,C3U A31U,0.102
12,C3U A35C,0.802
13,C3U A35U,0.339
14,C3U A36G,0.505
15,C3U A41U,0.917
16,C3U A43G,0.138
17,C3U A44U,0.0496
18,C3U A45C,0.123
19,C3U A45G,0.101
20,C3U A47C,0.192
21,C3U A47G,0.275

row,Variant,self-cleavage
1,C3U A47U,0.208
2,C3U A59C,0.143
3,C3U A71C,0.962
4,C3U A71U,0.429
5,C3U C4G,0.235
6,C3U C6A,0.372
7,C3U C6U,0.347
8,C3U C10G,0.457
9,C3U C16G,0.23
10,C3U C18A,0.641
11,C3U C18G,0.531
12,C3U C37U,0.29
13,C3U C38U,0.354
14,C3U C46A,0.121
15,C3U C46G,0.179
16,C3U C48A,0.167
17,C3U C50A,0.174
18,C3U C65A,0.611
19,C3U C65U,0.334
20,C3U C66U,0.239
21,C3U G13A,0.522

row,Variant,self-cleavage
1,C3U G13C,0.324
2,C3U G15A,0.416
3,C3U G15U,0.474
4,C3U G17A,0.682
5,C3U G17C,0.305
6,C3U G19U,0.502
7,C3U G21A,0.483
8,C3U G25C,0.0917
9,C3U G27U,0.15
10,C3U G29A,0.173
11,C3U G32C,0.133
12,C3U G34A,0.747
13,C3U G51C,0.402
14,C3U G51U,0.538
15,C3U G54C,0.211
16,C3U G57A,0.0631
17,C3U G57U,0.204
18,C3U G68U,0.19
19,C3U G69U,0.106
20,C3U U5A,0.429
